Experiments:
[1] = biological target: papain (from papaya latex) (papaya) (UniProt P00784); test: enzyme inhibition assay (Ki from substrate hydrolysis progress curves); papain activity in 50 mM phosphate buffer (pH 6.0), 40 µM Z-FR-AMC, 37°C, with or without NtCYS, reducing conditions
[2] = biological target: human liver cathepsin L (human); test: enzyme inhibition assay (Ki from substrate hydrolysis progress curves); human cathepsin L activity in 400 mM sodium acetate buffer (pH 5.5), 40 µM Z-FR-AMC, 25°C, with or without NtCYS, reducing conditions
[3] = biological target: recombinant NtCP14 (N. tabacum); test: enzyme inhibition assay (Ki(app) = [I0]/(V0/Vi-1)); apparent; recombinant NtCP14 activated in 100 mM sodium acetate (pH 4.0); hydrolysis of 40 µM Bz-FVR-AMC at 30°C, pH 6.0, reducing conditions, NtCYS varied
Sequence of recombinant NtCP14 (N. tabacum) (main, as listed by the source): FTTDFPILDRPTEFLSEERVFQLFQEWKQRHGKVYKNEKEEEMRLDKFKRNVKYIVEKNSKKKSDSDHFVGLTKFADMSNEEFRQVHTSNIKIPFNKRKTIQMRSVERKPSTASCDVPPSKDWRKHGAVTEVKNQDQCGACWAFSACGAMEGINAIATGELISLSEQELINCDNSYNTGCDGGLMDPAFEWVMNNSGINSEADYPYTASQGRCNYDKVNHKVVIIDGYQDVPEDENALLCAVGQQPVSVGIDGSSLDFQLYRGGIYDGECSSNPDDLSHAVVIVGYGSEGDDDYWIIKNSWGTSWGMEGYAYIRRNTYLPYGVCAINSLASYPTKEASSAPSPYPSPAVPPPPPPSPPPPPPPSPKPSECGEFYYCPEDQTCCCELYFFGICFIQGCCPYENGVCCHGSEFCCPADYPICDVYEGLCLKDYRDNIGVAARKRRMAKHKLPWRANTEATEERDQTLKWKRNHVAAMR

Sequence of papain (from papaya latex) (papaya) (P00784 134-345): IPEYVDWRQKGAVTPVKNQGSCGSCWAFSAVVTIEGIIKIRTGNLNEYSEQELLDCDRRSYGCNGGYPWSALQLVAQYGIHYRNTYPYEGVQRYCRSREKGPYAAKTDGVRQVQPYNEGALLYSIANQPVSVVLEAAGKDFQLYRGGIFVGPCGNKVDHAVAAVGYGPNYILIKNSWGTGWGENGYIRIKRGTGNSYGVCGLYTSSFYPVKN

Ki [1]: 64.5 nM
Ki [2]: 0.39 nM
Ki [3]: 740 nM
Substance: recombinant NtCYS (natural protein)
